Laboratory results published in patent EP1426444A2 (Technion Research & Development Co., Ltd., dated 2004).

B1: VEGF121 (ligand, human, UniProt P15692-9 27-147, looked up)
chain: APMAEGGGQNHHEVVKFMDVYQRSYCHPIETLVDIFQEYPDEIEYIFKPSCVPLMRCGGCCNDEGLECVPTEESNITMQIMRIKPHQGQHIGEMSFLQHNKCECRPKKDRARQEKCDKPRR
notes: mature
B2: VEGF145 (recombinant, produced in Sf9 insect cells by baculovirus) (ligand)
chain: APMAEGGGQNHHEVVKFMDVYQRSYCHPIETLVDIFQEYPDEIEYIFKPSCVPLMRCGGCCNDEGLECVPTEESNITMQIMRIKPHQGQHIGEMSFLQHNKCECRPKKDRARQEKKSVRGKGKGQKRKRKKSRYKSWSVCDKPRR
notes: partially purified on heparin-sepharose; also called VEGF exons 1-5, 6a, 8

Target: T1, KDR/flk-1 VEGF receptor of HUVEC cells (human, UniProt P35968 20-1356)
T1 construct: whole, on cells; Endogenous receptor on confluent HUVEC cells; also called the larger VEGF receptor of HUVEC cells
Assay: overview table, row 'Binding to Flk-1 and Flt-1 receptors'

T1 sequence (P35968 20-1356): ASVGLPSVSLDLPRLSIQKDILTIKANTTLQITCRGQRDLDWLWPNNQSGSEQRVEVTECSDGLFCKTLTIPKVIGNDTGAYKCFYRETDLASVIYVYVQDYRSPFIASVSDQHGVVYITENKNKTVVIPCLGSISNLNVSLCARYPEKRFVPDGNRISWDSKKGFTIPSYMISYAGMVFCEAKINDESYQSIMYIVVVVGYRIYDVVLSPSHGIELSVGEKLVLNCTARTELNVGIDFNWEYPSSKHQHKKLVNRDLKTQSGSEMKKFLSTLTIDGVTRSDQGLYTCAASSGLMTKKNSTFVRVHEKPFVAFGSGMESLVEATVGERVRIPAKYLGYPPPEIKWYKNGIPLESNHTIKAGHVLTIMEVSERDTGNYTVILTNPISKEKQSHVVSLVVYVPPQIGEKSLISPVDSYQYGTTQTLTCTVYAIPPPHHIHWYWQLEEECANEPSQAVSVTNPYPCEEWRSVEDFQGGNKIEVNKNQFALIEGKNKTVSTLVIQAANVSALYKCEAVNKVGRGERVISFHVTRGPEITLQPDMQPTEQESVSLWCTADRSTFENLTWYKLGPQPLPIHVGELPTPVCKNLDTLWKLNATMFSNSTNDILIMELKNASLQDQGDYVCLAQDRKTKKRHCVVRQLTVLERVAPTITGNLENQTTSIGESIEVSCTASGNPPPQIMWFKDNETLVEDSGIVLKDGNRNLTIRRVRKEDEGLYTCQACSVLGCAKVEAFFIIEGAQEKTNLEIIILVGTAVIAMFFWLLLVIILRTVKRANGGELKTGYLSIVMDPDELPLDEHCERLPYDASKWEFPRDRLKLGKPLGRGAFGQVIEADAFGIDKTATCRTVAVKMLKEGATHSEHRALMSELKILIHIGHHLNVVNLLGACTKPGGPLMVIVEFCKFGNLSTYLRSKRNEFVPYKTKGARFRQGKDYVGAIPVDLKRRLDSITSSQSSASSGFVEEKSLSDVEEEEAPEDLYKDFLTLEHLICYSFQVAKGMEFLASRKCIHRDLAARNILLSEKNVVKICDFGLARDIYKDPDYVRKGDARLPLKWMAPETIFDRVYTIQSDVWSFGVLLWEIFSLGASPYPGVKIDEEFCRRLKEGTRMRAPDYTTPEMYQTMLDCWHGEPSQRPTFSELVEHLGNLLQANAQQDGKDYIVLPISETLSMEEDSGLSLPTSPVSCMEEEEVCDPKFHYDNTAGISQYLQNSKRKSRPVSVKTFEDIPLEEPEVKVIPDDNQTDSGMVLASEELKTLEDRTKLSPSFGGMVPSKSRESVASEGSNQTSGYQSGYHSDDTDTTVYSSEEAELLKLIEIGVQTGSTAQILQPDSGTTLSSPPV

| Binder | binding result |
| --- | --- |
| B1 | binds |
| B2 | binds |
